The values below come from patent US20150218244A1.

The experiment addresses IL-10 receptor (IL-10R) on freshly isolated primary blood monocytes (human) (UniProt Q13651). Put plainly: cell-based or functional assay.

Chain of IL-10 receptor (IL-10R) on freshly isolated primary blood monocytes (human) (Q13651 22-578, chain 1 of 2): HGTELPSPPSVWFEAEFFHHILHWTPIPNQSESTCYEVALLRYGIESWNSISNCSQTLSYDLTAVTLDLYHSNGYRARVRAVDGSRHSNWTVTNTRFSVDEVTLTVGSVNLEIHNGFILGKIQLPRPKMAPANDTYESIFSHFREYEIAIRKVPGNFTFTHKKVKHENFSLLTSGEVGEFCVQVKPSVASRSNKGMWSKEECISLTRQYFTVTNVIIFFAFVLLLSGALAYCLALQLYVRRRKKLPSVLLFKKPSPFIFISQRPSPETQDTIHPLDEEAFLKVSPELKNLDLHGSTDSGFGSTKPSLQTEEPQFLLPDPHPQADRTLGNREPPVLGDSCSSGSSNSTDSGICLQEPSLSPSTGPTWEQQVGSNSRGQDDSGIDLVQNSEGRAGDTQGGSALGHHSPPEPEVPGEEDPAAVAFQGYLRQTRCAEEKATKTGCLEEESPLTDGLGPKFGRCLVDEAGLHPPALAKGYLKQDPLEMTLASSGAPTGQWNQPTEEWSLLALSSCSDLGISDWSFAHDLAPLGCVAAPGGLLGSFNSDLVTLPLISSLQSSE
Chain of IL-10 receptor (IL-10R) on freshly isolated primary blood monocytes (human) (Q08334 20-325, chain 2 of 2, further chain): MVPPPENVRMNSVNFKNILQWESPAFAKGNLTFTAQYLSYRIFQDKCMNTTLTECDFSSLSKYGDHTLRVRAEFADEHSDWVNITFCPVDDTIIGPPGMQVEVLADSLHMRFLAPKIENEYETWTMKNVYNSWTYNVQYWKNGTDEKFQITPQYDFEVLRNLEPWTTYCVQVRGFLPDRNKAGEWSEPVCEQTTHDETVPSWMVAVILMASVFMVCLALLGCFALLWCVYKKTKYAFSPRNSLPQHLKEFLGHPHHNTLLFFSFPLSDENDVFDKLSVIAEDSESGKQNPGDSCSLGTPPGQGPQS

The substance “recombinant wild type human IL-10 (from UniProt P22301 19-178) (ligand)” came in with an EC50 [nM] pSTAT3 induction of 0.017 nM; an EC50 [nM] pSTAT3 induction, Donor 1 of 0.029 nM; an EC50 [nM] pSTAT3 induction, Donor 2 of 0.019 nM; an EC50 [nM] pSTAT3 induction, Donor 3 of 0.021 nM.
